A word on the Kd: it is the free concentration of one partner at which half of the binding sites on the other are occupied at equilibrium, for simple one-to-one binding.

Consider two molecules from patent US20060039904A1 (AstraZeneca / MedImmune, published 2006).

Assay [1] addresses T1, FcγRIIIA (soluble receptor used as analyte in the BIAcore runs) (human, UniProt P08637 17-208). Description: BIAcore run 2, IgG immobilized, soluble FcγRIIIA, steady-state isotherm. (In general: In SPR one partner is held on a chip, and binding of the other changes the refractive index at the surface.)
The target in assay [2] is T1, FcγRIIIA (soluble receptor used as …). The assay is described as follows: BIAcore run 2, IgG immobilized, soluble FcγRIIIA, Scatchard plot.
The target is the same in assay [3]. The assay is described as follows: BIAcore run 2, ratio of isotherm KD values against wild type Vitaxin®.
Assay [4] has the same target. The assay is described as follows: BIAcore run 1, IgG immobilized, soluble FcγRIIIA, steady-state isotherm.
Assay [5] has the same target. Description: BIAcore run 1, ratio of isotherm KD values against wild type Vitaxin®.
Assay [6] shares this target. Description: BIAcore run 1, IgG immobilized, soluble FcγRIIIA, Scatchard plot.

T1 sequence (P08637 17-208): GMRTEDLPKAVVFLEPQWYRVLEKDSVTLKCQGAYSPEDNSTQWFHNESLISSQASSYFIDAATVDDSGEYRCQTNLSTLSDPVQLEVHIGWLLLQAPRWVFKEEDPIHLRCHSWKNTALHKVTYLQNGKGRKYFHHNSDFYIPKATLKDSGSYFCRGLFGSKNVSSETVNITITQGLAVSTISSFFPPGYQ

B1: Vitaxin®-1M (Vitaxin® Fc variant I332E, IgG1) (antibody)
heavy: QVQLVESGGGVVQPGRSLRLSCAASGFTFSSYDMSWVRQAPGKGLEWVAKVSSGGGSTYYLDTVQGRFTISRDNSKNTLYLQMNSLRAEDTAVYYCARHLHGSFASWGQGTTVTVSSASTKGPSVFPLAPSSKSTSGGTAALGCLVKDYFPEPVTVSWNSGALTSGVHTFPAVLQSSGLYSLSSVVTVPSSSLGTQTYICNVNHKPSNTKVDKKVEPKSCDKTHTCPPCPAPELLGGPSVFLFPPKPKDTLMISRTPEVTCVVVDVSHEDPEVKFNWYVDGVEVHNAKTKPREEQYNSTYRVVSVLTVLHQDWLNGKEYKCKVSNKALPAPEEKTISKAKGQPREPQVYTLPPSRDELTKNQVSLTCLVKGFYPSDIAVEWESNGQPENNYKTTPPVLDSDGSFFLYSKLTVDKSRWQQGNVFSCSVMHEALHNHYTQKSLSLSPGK
VL: EIVLTQSPATLSLSPGERATLSCQASQSISNFLHWYQQRPGQAPRLLIRYRSQSISGIPARFSGSGSGTDFTLTISSLEPEDFAVYYCQQSGSWPLTFGGGTKVEIK
notes: Full length IgG1 with I332E in the Fc; expressed in 293H/HEK293 cells; also called I332E Fc variant; Vitaxin® Fc (I332E) variant
In the case of B1, the Kd in assay [1] was found to be 1280 nM; in assay [2], 1220 nM; in assay [4], 458 nM; in assay [6] it was 458 nM. Besides, the entries for the “Fold increase over WT” value in assay [3] and in assay [5] were 7 fold and 6.5 fold, respectively.

B2: Vitaxin®-3M (Vitaxin® Fc variant S239D/A330L/I332E, IgG1) (antibody)
heavy: QVQLVESGGGVVQPGRSLRLSCAASGFTFSSYDMSWVRQAPGKGLEWVAKVSSGGGSTYYLDTVQGRFTISRDNSKNTLYLQMNSLRAEDTAVYYCARHLHGSFASWGQGTTVTVSSASTKGPSVFPLAPSSKSTSGGTAALGCLVKDYFPEPVTVSWNSGALTSGVHTFPAVLQSSGLYSLSSVVTVPSSSLGTQTYICNVNHKPSNTKVDKKVEPKSCDKTHTCPPCPAPELLGGPDVFLFPPKPKDTLMISRTPEVTCVVVDVSHEDPEVKFNWYVDGVEVHNAKTKPREEQYNSTYRVVSVLTVLHQDWLNGKEYKCKVSNKALPLPEEKTISKAKGQPREPQVYTLPPSRDELTKNQVSLTCLVKGFYPSDIAVEWESNGQPENNYKTTPPVLDSDGSFFLYSKLTVDKSRWQQGNVFSCSVMHEALHNHYTQKSLSLSPGK
VL: EIVLTQSPATLSLSPGERATLSCQASQSISNFLHWYQQRPGQAPRLLIRYRSQSISGIPARFSGSGSGTDFTLTISSLEPEDFAVYYCQQSGSWPLTFGGGTKVEIK
notes: I332E is used here; also called Vitaxin S239D/A330L/I332E
B2 gave a Kd in assay [1] of 114 nM.
